Results on 4 substances are retold here after publication PMC7835520.

Holding throughout (assay): SEC; cleared, microfiltered serum-containing supernatant of transfected Bosc23 cells; Superdex 200 10/300 GL in PBS at 4°C; fractions TCA precipitated and immunoblotted with α-Shh or α-StrepII antibodies; total eluted protein set to 100%, monomeric (< 80 kDa) versus multimeric (> 80 kDa)
For orientation: Size exclusion chromatography separates by hydrodynamic size, large species first.

The target of assay [1] is Shh^HA, Shh with an HA tag inserted into the C-terminal peptide (Mus musculus).
Assay [2] has as its target Shh^Strep, Shh with a StrepII tag inserted into the C-terminal peptide (Mus musculus).
Assay [3] concerns the target Sonic hedgehog (Shh), untagged (Mus musculus).
In assay [4] the target is ^HAShh^HA, Shh with HA tags in both terminal peptides (Mus musculus).

In assay [1], “Shh^HA, Shh with an HA tag inserted into the C-terminal peptide (ligand)” returned a percent of eluted protein < 80 kDa (monomeric) of 65%.
In the case of “Shh^Strep, Shh with a StrepII tag inserted into the C-terminal peptide (ligand)”, the percent of eluted protein < 80 kDa (monomeric) in assay [2] is 80%.
In the case of Sonic hedgehog (Shh), untagged (ligand), the percent of eluted protein < 80 kDa (monomeric) in assay [3] was determined as 15%.
Take “^HAShh^HA, Shh with HA tags in both terminal peptides (ligand)”: the percent of eluted protein < 80 kDa (monomeric) in assay [4] stood at 56%.
